The target of test [1] is T1, HD-PTPBro1 (Bro1 domain of HD-PTP, 1-361) (Homo sapiens, UniProt Q9H3S7).
T1 construct: HD-PTPBro1 (1-361) was cloned in a pNIC28-Bsa4 vector; made in house; host or cells: E. coli BL21 (DE3)
T1 sequence (Q9H3S7 1-361): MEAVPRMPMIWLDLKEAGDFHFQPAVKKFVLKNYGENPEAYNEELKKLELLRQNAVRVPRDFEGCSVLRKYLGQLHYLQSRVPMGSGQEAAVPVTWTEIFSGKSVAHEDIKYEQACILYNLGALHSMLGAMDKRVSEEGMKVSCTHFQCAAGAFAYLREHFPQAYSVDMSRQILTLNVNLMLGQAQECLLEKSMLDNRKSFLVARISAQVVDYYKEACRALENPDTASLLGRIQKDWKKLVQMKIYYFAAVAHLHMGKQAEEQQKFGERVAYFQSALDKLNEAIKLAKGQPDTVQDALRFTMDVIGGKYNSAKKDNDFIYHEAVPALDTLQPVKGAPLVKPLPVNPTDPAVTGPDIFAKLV
As to the kind of experiment: Biosensor (SPR) binding of peptides to HD-PTPBro1. The settings on record: 10 mM HEPES pH 7.4, 150 mM NaCl, 0.05% Tween 20, 25°C; for Binding to HD-PTPBro1 (sensogram): compared with wild-type endofin peptide, result in words. The method, then: (§1) Biosensor based binding experiments were performed using a ProteOn XPR36 surface Plasmon resonance instrument (Bio-Rad Laboratories). The ProteOn XPR36 is multiplex system that can be used to provide simultaneous flow of up to six analyte channels (A1-A6) over up to six ligand channels (L1-L6). The running buffer used was 10 mM HEPES pH 7.4, 150 mM NaCl, 0.05% Tween 20. Immobilization of His6-tagged HD-PTP and a negative control protein, His6-tagged MptpB, was performed on a HTE chip (Bio-Rad Laboratories) in the vertical orientation. Proteins were diluted in running buffer to a final concentration of 50-100 μg/ml and 150 μl was injected at a flow rate of 30 μl/min The immobilization level of proteins was typically 5000-8000 response unit (RU). All experiments were performed at 25°C. Synthetic peptides spanning the binding regions of CHMP4 A, B and C, and SARA and endofin, were obtained from Generon Ltd, UK. For equilibrium binding measurements these peptides were used as analytes. Peptide stocks were prepared in running buffer just prior the binding experiments. Peptides were injected (50 μl at 100 μl/min) in the horizontal orientation using five serially diluted peptide concentrations (channels A1-A5) alongside a buffer control (channel A6). Peptide concentrations were chosen to give a suitable spread of responses below and above half-maximal binding.
(§2) All the binding sensograms were collected, processed and analyzed using the integrated ProteOn Manager software (Bio-Rad Laboratories), using the equilibrium binding mode: Response = [A] ^∗ Rmax/([A] + KD), where [A] is the analyte concentration and Rmax is the maximum response. At least 3 independent replicates were performed for each experiment. Values in the text and figure legends indicate mean +/- SD (standard deviation).

For a further test, the target named is T2, HD-PTPBro1-CC (1-714) (Homo sapiens, UniProt Q9H3S7).
T2 construct: HD-PTPBro1-CC (1-714) and AlixBro1 (1-359) were cloned in a pET28a vector; made in house; host or cells: E. coli BL21 (DE3)
T2 sequence (Q9H3S7 1-714): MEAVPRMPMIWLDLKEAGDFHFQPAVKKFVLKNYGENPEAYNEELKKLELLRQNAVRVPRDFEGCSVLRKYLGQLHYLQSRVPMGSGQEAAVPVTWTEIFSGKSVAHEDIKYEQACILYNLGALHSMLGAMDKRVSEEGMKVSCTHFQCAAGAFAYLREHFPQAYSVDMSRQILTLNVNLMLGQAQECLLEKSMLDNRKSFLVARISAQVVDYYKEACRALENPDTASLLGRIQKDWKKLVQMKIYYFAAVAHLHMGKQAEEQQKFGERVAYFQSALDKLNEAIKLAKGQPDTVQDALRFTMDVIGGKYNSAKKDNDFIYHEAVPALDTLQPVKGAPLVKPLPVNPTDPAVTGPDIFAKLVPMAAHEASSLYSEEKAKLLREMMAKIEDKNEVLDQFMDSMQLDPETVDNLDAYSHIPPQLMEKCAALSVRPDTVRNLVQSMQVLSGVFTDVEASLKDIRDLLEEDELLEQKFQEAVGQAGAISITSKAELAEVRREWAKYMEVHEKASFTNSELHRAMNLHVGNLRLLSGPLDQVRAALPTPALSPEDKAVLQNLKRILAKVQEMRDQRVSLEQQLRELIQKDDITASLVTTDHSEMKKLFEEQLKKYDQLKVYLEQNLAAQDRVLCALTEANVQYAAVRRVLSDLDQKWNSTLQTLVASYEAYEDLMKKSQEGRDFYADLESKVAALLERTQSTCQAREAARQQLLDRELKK
Put plainly: Biosensor (SPR) binding of peptides to HD-PTPBro1-CC. The settings on record: 10 mM HEPES pH 7.4, 150 mM NaCl, 0.05% Tween 20, 25°C; for Binding to HD-PTPBro1-CC (sensogram): compared with wild-type endofin peptide, result in words. The method, then:
as §1, §2

The target in test [2] is T3, His6-HD-PTP_(Bro1) (1-361) (human, UniProt Q9H3S7 1-361).
T3 construct: HD-PTP/PTPN23, Bro1 domain, residues 1-361; Immobilised by its His6 tag on the HTE chip; also called HD-PTP Bro1 domain; source: E. coli BL21 (DE3), purified (Nickel-beads, MonoQ, Superdex 200); not shown: His6, N-terminal, kept
T3 sequence (looked up): T1 sequence (Q9H3S7 1-361)
As to the kind of experiment: SPR; ProteOn XPR36; His6-tagged proteins immobilised on a HTE chip (5000-8000 RU); synthetic peptides as analytes, five concentrations; 10 mM HEPES pH 7.4, 150 mM NaCl, 0.05% Tween 20; 25°C; equilibrium binding fit. The following applies: both partners purified. On the technique in general: In SPR one partner is held on a chip, and binding of the other changes the refractive index at the surface.

The target in test [3] is T4, His6-HD-PTP_(Bro1-CC) (1-714), bacterially expressed (human, UniProt Q9H3S7 1-714).
T4 construct: HD-PTP/PTPN23, Bro1 and coiled-coil domains, residues 1-714; also called His-HD-PTP; source: E. coli BL21 (DE3), purified (Nickel-beads, MonoQ, Superdex 200); not shown: His6, N-terminal, kept
T4 sequence (looked up): T2 sequence (Q9H3S7 1-714)
Described as above. The settings on record: both partners purified.

In test [4] the target is T4, His6-HD-PTP_(Bro1-CC) (1-714), …. Put plainly: co-IP; competition: GST-CHMP4B and His6-HD-PTP Bro1-CC as in the CHMP4B binding experiments, endofin 22-mer peptide (WT or L15P) added at 20 μM; immunoprecipitation with anti-His. The following applies: both partners purified.
The target of test [5] is T5, His6-HD-PTP_(Bro1-CC) T145K, bacterially expressed (human, UniProt Q9H3S7 1-714, T145K).
T5 construct: HD-PTP/PTPN23, residues 1-714 with T145K; source: E. coli, bacterially expressed, purified; not shown: His6, N-terminal, kept
T5 sequence (looked up): T2 sequence (Q9H3S7 1-714) with T145K
As to the kind of experiment: co-IP; bacterially expressed GST-CHMP4B, full length or truncated (50 μg/ml), and His6-HD-PTP Bro1-CC (5 μg) in 200 μl IP2 buffer with 250 mM NaCl, 2 h at 4°C; immunoprecipitation with anti-His. The settings on record: both partners purified.

Another test deals with T6, Endofin (Homo sapiens (Human), UniProt Q7Z3T8).
T6 chain: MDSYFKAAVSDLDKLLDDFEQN
Put plainly: SPR equilibrium, peptide analyte.

Setting [6] is: listed as endofin L15 to proline.
Where [7] appears, read: listed as endofin peptide containing the L15P mutation.

Positions count from the first letter of the chain named. “And” between values parts separate entries of the source, which are not always exact repeats. Equal values may be shown once. Ends that are not written are not given here.

On to “endofin1–22(L15P): endofin 22-mer peptide containing the L15P mutation (MDSYFKAAVSDLDKPLDDFEQN)”, for which the “Binding to HD-PTPBro1 (sensogram)” value is on record as “abolishes binding” in test [1] (setting [6]) and “did not bind” in test [1] (setting [7]). Besides, the figures for the “Binding to HD-PTPBro1-CC (sensogram)” value with HD-PTPBro1-CC (1-714) (setting [6]) and with HD-PTPBro1-CC (1-714) (setting [7]) were “abolishes binding” and “did not bind”, respectively. In the case of KAAVSDLDKLLDDFEQN, in test [1], the “Binding to HD-PTPBro1 (sensogram)” value is reported as “poor binding”. In addition, the Kd in test [1] (poor binding, read-out: Binding (affinity bound) to HD-PTPBro1) was greater than 1500 µM; at HD-PTPBro1-CC (1-714) (poor binding, read-out: Binding (affinity bound) to HD-PTPBro1-CC) it was greater than 1500 µM. Also, at HD-PTPBro1-CC (1-714), the “Binding to HD-PTPBro1-CC (sensogram)” value is reported as “poor binding”. As for QRAEEEDDDIKQLAAWAT [CHMP4C C-terminal peptide], the Kd in test [2] is 89 µM and 88 µM.

B1: SARA 22-mer peptide (N-terminal 22 residues of SARA) (peptide, UniProt O95405 1-22, looked up)
peptide: MENYFQAEAYNLDKVLDEFEQN
notes: human SARA, N-terminal 22 residues; also called SARA peptide; equivalent region of SARA; source: synthetic peptide (Generon Ltd, UK)
Regarding B1, the Kd in test [2] turned out to be 11.3 µM. PKVDEDEEALKQLAEWVS [CHMP4A C-terminal peptide] had a Kd in test [2] of 132 µM.

B2: shorter endofin peptide lacking 1-MDSYF-5 (peptide)
chain: KAAVSDLDKLLDDFEQN
modifications: C-terminal limit not given; taken as residue 22, the end of the 22-mer endofin peptide
For B2, the Kd in test [2] and in test [3] was greater than 1500 µM in each case.

B3: GST-CHMP4B (1-224), bacterially expressed (natural protein, human, UniProt Q9H444 1-224, looked up)
chain: MSVFGKLFGAGGGKAGKGGPTPQEAIQRLRDTEEMLSKKQEFLEKKIEQELTAAKKHGTKNKRAALQALKRKKRYEKQLAQIDGTLSTIEFQREALENANTNTEVLKNMGYAAKAMKAAHDNMDIDKVDELMQDIADQQELAEEISTAISKPVGFGEEFDEDELMAELEELEQEELDKNLLEISGPETVPLPNVPSIALPSKPAKKKEEEDDDMKELENWAGSM
notes: CHMP4B, residues 1-224, full length; In pGEX-4T1; also called CHMP4B-FL; full length GST-CHMP4B; source: E. coli C41 (DE3), purified (GSTrap HP)
On to B3, for which the binding result in test [4] and in test [5] was “binds” in each case.

B4: endofin 22-mer peptide (first 22 residues of endofin) (peptide, UniProt Q7Z3T8 1-22, looked up)
peptide: MDSYFKAAVSDLDKLLDDFEQN
notes: human endofin, first 22 residues; begins 1-MDSYF-5; also called endofin peptide; endofin_(1-22) (WT); source: synthetic peptide (Generon Ltd, UK)
Take B4: the results for the Kd in test [2] and in test [3] were 3.1 µM and 2.7 µM, respectively.

As to KKKEEEDDDMKELENWAGSM [CHMP4B C-terminal peptide], in test [2], the Kd came out at 85 µM.

B5: ALIX_Bro1 (protein)
chain: MATFISVQLKKTSEVDLAKPLVKFIQQTYPSGGEEQAQYCRAAEELSKLRRAAVGRPLDKHEGALETLLRYYDQICSIEPKFPFSENQICLTFTWKDAFDKGSLFGGSVKLALASLGYEKSCVLFNCAALASQIAAEQNLDNDEGLKIAAKHYQFASGAFLHIKETVLSALSREPTVDISPDTVGTLSLIMLAQAQEVFFLKATRDKMKDAIIAKLANQAADYFGDAFKQCQYKDTLPKEVFPVLAAKHCIMQANAEYHQSILAKQQKKFGEEIARLQHAAELIKTVASRYDEYVNVKDFSDKINRALAAAKKDNDFIYHDRVPDLKDLDPIGKATLVKSTPVNVPISQKFTDLFEKMV
Turning to B5, the Kd with Endofin was greater than 12.5 µM.

(Values after article PMC5501724, “Structural Basis for Specific Interaction of TGFβ Signaling Regulators SARA/Endofin with HD-PTP” (Structure(London, England:1993), 2017).)
